Laboratory results: article PMC5096884

Target: Not1-3HA (UniProt P25655)
Assay: co-immunoprecipitation (TAP pull-down on IgG-coupled magnetic beads), Western blot quantification
Conditions: cells in exponential growth phase; n=5 biological replicates; parent: est. 1.0; read off a plot

Sequence of UniProt P25655 (P25655 whole entry): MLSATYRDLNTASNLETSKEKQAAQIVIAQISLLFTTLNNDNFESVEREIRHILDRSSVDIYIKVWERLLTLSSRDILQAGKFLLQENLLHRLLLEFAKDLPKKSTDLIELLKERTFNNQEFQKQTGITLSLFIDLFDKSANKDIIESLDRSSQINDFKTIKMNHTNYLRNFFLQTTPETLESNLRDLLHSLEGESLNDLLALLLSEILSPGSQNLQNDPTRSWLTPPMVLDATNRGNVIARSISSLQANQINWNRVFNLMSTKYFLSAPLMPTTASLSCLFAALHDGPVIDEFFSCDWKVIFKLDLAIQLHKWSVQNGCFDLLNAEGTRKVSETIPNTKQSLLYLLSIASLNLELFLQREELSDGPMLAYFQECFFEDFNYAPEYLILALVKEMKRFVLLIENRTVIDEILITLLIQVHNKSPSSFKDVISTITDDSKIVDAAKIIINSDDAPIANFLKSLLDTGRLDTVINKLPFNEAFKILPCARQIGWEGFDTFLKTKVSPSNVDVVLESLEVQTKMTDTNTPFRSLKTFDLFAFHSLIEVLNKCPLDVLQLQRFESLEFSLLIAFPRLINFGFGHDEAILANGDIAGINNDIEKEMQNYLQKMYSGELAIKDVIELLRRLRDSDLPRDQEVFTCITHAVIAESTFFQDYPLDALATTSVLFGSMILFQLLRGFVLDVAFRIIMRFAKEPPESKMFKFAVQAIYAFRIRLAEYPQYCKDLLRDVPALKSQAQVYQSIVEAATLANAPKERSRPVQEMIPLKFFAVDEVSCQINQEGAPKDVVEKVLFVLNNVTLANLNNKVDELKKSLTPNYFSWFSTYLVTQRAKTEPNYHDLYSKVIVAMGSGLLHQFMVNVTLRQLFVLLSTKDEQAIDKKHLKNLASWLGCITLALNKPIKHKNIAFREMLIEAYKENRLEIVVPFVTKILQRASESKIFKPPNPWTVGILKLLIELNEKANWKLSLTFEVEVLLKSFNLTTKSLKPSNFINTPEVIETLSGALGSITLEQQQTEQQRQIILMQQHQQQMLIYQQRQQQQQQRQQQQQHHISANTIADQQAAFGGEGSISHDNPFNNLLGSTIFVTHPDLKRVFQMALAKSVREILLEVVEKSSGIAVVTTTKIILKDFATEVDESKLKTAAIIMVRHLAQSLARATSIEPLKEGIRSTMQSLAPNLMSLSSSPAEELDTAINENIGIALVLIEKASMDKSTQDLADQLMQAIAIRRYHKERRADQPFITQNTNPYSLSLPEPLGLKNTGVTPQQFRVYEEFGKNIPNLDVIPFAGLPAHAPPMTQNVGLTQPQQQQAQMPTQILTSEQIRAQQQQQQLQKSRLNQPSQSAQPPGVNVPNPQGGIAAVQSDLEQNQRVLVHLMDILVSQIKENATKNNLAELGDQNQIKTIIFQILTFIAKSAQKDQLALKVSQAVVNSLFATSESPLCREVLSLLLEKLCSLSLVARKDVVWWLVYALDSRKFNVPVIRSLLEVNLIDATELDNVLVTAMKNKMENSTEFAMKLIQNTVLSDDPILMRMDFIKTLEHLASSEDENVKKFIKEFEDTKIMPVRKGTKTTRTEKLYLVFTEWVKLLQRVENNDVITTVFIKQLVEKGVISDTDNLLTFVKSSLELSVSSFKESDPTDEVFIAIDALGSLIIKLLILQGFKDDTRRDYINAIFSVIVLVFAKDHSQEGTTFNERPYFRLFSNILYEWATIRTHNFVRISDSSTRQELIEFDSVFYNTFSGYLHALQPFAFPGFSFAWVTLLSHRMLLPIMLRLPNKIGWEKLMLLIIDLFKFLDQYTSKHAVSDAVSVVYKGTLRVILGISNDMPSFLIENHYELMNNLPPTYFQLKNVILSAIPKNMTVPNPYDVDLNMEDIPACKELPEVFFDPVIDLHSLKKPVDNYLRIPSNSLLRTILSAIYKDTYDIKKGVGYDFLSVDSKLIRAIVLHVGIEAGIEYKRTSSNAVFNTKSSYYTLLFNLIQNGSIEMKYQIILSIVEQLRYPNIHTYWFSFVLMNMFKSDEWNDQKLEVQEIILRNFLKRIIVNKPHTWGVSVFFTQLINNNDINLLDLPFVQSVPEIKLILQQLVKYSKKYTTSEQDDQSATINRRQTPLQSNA

ratio to parent: 0.44
Substance: TAP-tagged Dhh1 (from UniProt P39517) R55E; F62E; Q282E; N284E; R355E
